Publication PMC8580825, “Scaffolding protein CcmM directs multiprotein phase separation in β-carboxysome biogenesis” (Nature Structural & Molecular Biology, 2021)

B1: SeM58-K62D (natural protein, Synechococcus elongatus PCC 7942, UniProt Q03513 1-539, looked up)
chain: MPSPTTVPVATAGRLAEPYIDPAAQVHAIASIIGDVRIAAGVRVAAGVSIRADEGAPFQVGDESILQEGAVIHGLEYGRVLGDDQADYSVWIGQRVAITHKALIHGPAYLGDDCFVGFRSTVFNARVGAGSVIMMHALVQDVEIPPGRYVPSGAIITTQQQADRLPEVRPEDREFARHIIGSPPVIVRSTPAATADFHSTPTPSPLRPSSSEATTVSAYNGQGRLSSEVITQVRSLLNQGYRIGTEHADKRRFRTSSWQPCAPIQSTNERQVLSELENCLSEHEGEYVRLLGIDTNTRSRVFEALIQRPDGSVPESLGSQPVAVASGGGRQSSYASVSGNLSAEVVNKVRNLLAQGYRIGTEHADKRRFRTSSWQSCAPIQSSNERQVLAELENCLSEHEGEYVRLLGIDTASRSRVFEALIQDPQGPVGSAKAAAAPVSSATPSSHSYTSNGSSSSDVAGQVRGLLAQGYRISAEVADKRRFQTSSWQSLPALSGQSEATVLPALESILQEHKGKYVRLIGIDPAARRRVAELLIQKP
notes: CcmM (M58), Synechococcus elongatus PCC 7942, point mutant in the γCAL domain; source: E. coli BL21 (DE3), purified as wild-type M58; not shown: His6-ubiquitin, N-terminal, cleaved
B2: SeM58-R95D (natural protein, Synechococcus elongatus PCC 7942, UniProt Q03513 1-539, looked up)
chain: MPSPTTVPVATAGRLAEPYIDPAAQVHAIASIIGDVRIAAGVRVAAGVSIRADEGAPFQVGKESILQEGAVIHGLEYGRVLGDDQADYSVWIGQDVAITHKALIHGPAYLGDDCFVGFRSTVFNARVGAGSVIMMHALVQDVEIPPGRYVPSGAIITTQQQADRLPEVRPEDREFARHIIGSPPVIVRSTPAATADFHSTPTPSPLRPSSSEATTVSAYNGQGRLSSEVITQVRSLLNQGYRIGTEHADKRRFRTSSWQPCAPIQSTNERQVLSELENCLSEHEGEYVRLLGIDTNTRSRVFEALIQRPDGSVPESLGSQPVAVASGGGRQSSYASVSGNLSAEVVNKVRNLLAQGYRIGTEHADKRRFRTSSWQSCAPIQSSNERQVLAELENCLSEHEGEYVRLLGIDTASRSRVFEALIQDPQGPVGSAKAAAAPVSSATPSSHSYTSNGSSSSDVAGQVRGLLAQGYRISAEVADKRRFQTSSWQSLPALSGQSEATVLPALESILQEHKGKYVRLIGIDPAARRRVAELLIQKP
notes: as for B1
B3: SeM58-D249K (natural protein, Synechococcus elongatus PCC 7942, UniProt Q03513 1-539, looked up)
chain: MPSPTTVPVATAGRLAEPYIDPAAQVHAIASIIGDVRIAAGVRVAAGVSIRADEGAPFQVGKESILQEGAVIHGLEYGRVLGDDQADYSVWIGQRVAITHKALIHGPAYLGDDCFVGFRSTVFNARVGAGSVIMMHALVQDVEIPPGRYVPSGAIITTQQQADRLPEVRPEDREFARHIIGSPPVIVRSTPAATADFHSTPTPSPLRPSSSEATTVSAYNGQGRLSSEVITQVRSLLNQGYRIGTEHAKKRRFRTSSWQPCAPIQSTNERQVLSELENCLSEHEGEYVRLLGIDTNTRSRVFEALIQRPDGSVPESLGSQPVAVASGGGRQSSYASVSGNLSAEVVNKVRNLLAQGYRIGTEHADKRRFRTSSWQSCAPIQSSNERQVLAELENCLSEHEGEYVRLLGIDTASRSRVFEALIQDPQGPVGSAKAAAAPVSSATPSSHSYTSNGSSSSDVAGQVRGLLAQGYRISAEVADKRRFQTSSWQSLPALSGQSEATVLPALESILQEHKGKYVRLIGIDPAARRRVAELLIQKP
notes: CcmM (M58), Synechococcus elongatus PCC 7942, point mutant in SSUL1; source: E. coli BL21 (DE3), purified as wild-type M58; not shown: His6-ubiquitin, N-terminal, cleaved
B4: SeM58-E76K (natural protein, Synechococcus elongatus PCC 7942, UniProt Q03513 1-539, looked up)
chain: MPSPTTVPVATAGRLAEPYIDPAAQVHAIASIIGDVRIAAGVRVAAGVSIRADEGAPFQVGKESILQEGAVIHGLKYGRVLGDDQADYSVWIGQRVAITHKALIHGPAYLGDDCFVGFRSTVFNARVGAGSVIMMHALVQDVEIPPGRYVPSGAIITTQQQADRLPEVRPEDREFARHIIGSPPVIVRSTPAATADFHSTPTPSPLRPSSSEATTVSAYNGQGRLSSEVITQVRSLLNQGYRIGTEHADKRRFRTSSWQPCAPIQSTNERQVLSELENCLSEHEGEYVRLLGIDTNTRSRVFEALIQRPDGSVPESLGSQPVAVASGGGRQSSYASVSGNLSAEVVNKVRNLLAQGYRIGTEHADKRRFRTSSWQSCAPIQSSNERQVLAELENCLSEHEGEYVRLLGIDTASRSRVFEALIQDPQGPVGSAKAAAAPVSSATPSSHSYTSNGSSSSDVAGQVRGLLAQGYRISAEVADKRRFQTSSWQSLPALSGQSEATVLPALESILQEHKGKYVRLIGIDPAARRRVAELLIQKP
notes: as for B1
B5: SeM58-E246K (natural protein, Synechococcus elongatus PCC 7942, UniProt Q03513 1-539, looked up)
chain: MPSPTTVPVATAGRLAEPYIDPAAQVHAIASIIGDVRIAAGVRVAAGVSIRADEGAPFQVGKESILQEGAVIHGLEYGRVLGDDQADYSVWIGQRVAITHKALIHGPAYLGDDCFVGFRSTVFNARVGAGSVIMMHALVQDVEIPPGRYVPSGAIITTQQQADRLPEVRPEDREFARHIIGSPPVIVRSTPAATADFHSTPTPSPLRPSSSEATTVSAYNGQGRLSSEVITQVRSLLNQGYRIGTKHADKRRFRTSSWQPCAPIQSTNERQVLSELENCLSEHEGEYVRLLGIDTNTRSRVFEALIQRPDGSVPESLGSQPVAVASGGGRQSSYASVSGNLSAEVVNKVRNLLAQGYRIGTEHADKRRFRTSSWQSCAPIQSSNERQVLAELENCLSEHEGEYVRLLGIDTASRSRVFEALIQDPQGPVGSAKAAAAPVSSATPSSHSYTSNGSSSSDVAGQVRGLLAQGYRISAEVADKRRFQTSSWQSLPALSGQSEATVLPALESILQEHKGKYVRLIGIDPAARRRVAELLIQKP
notes: as for B3
B6: SeM58-R126D (natural protein, Synechococcus elongatus PCC 7942, UniProt Q03513 1-539, looked up)
chain: MPSPTTVPVATAGRLAEPYIDPAAQVHAIASIIGDVRIAAGVRVAAGVSIRADEGAPFQVGKESILQEGAVIHGLEYGRVLGDDQADYSVWIGQRVAITHKALIHGPAYLGDDCFVGFRSTVFNADVGAGSVIMMHALVQDVEIPPGRYVPSGAIITTQQQADRLPEVRPEDREFARHIIGSPPVIVRSTPAATADFHSTPTPSPLRPSSSEATTVSAYNGQGRLSSEVITQVRSLLNQGYRIGTEHADKRRFRTSSWQPCAPIQSTNERQVLSELENCLSEHEGEYVRLLGIDTNTRSRVFEALIQRPDGSVPESLGSQPVAVASGGGRQSSYASVSGNLSAEVVNKVRNLLAQGYRIGTEHADKRRFRTSSWQSCAPIQSSNERQVLAELENCLSEHEGEYVRLLGIDTASRSRVFEALIQDPQGPVGSAKAAAAPVSSATPSSHSYTSNGSSSSDVAGQVRGLLAQGYRISAEVADKRRFQTSSWQSLPALSGQSEATVLPALESILQEHKGKYVRLIGIDPAARRRVAELLIQKP
notes: as for B1
B7: SeM58-R79D (natural protein, Synechococcus elongatus PCC 7942, UniProt Q03513 1-539, looked up)
chain: MPSPTTVPVATAGRLAEPYIDPAAQVHAIASIIGDVRIAAGVRVAAGVSIRADEGAPFQVGKESILQEGAVIHGLEYGDVLGDDQADYSVWIGQRVAITHKALIHGPAYLGDDCFVGFRSTVFNARVGAGSVIMMHALVQDVEIPPGRYVPSGAIITTQQQADRLPEVRPEDREFARHIIGSPPVIVRSTPAATADFHSTPTPSPLRPSSSEATTVSAYNGQGRLSSEVITQVRSLLNQGYRIGTEHADKRRFRTSSWQPCAPIQSTNERQVLSELENCLSEHEGEYVRLLGIDTNTRSRVFEALIQRPDGSVPESLGSQPVAVASGGGRQSSYASVSGNLSAEVVNKVRNLLAQGYRIGTEHADKRRFRTSSWQSCAPIQSSNERQVLAELENCLSEHEGEYVRLLGIDTASRSRVFEALIQDPQGPVGSAKAAAAPVSSATPSSHSYTSNGSSSSDVAGQVRGLLAQGYRISAEVADKRRFQTSSWQSLPALSGQSEATVLPALESILQEHKGKYVRLIGIDPAARRRVAELLIQKP
notes: as for B1
B8: SeM58-D112K (natural protein, Synechococcus elongatus PCC 7942, UniProt Q03513 1-539, looked up)
chain: MPSPTTVPVATAGRLAEPYIDPAAQVHAIASIIGDVRIAAGVRVAAGVSIRADEGAPFQVGKESILQEGAVIHGLEYGRVLGDDQADYSVWIGQRVAITHKALIHGPAYLGKDCFVGFRSTVFNARVGAGSVIMMHALVQDVEIPPGRYVPSGAIITTQQQADRLPEVRPEDREFARHIIGSPPVIVRSTPAATADFHSTPTPSPLRPSSSEATTVSAYNGQGRLSSEVITQVRSLLNQGYRIGTEHADKRRFRTSSWQPCAPIQSTNERQVLSELENCLSEHEGEYVRLLGIDTNTRSRVFEALIQRPDGSVPESLGSQPVAVASGGGRQSSYASVSGNLSAEVVNKVRNLLAQGYRIGTEHADKRRFRTSSWQSCAPIQSSNERQVLAELENCLSEHEGEYVRLLGIDTASRSRVFEALIQDPQGPVGSAKAAAAPVSSATPSSHSYTSNGSSSSDVAGQVRGLLAQGYRISAEVADKRRFQTSSWQSLPALSGQSEATVLPALESILQEHKGKYVRLIGIDPAARRRVAELLIQKP
notes: as for B1

Molecular target: the molecule itself
Assay: SEC-MALS; 2 mg/ml protein; 50 mM Tris-HCl pH 8.0/150 mM KCl or 50 mM Tris-HCl pH 8.0/500 mM KCl/5 mM DTT; 25 °C; oligomeric state in solution

Stoichiometry N, 3:
B1
B2
B3
B4
B5
B6
B7
B8
